In patent publication US20210340271A1 (PROMAB BIOTECHNOLOGIES, published 2021):

What was measured:
[1] = target: negative unrelated control protein; test: ELISA, negative control antigen
[2] = target: T1, CD18 on HEK293-CD18 cells (UniProt P05107 23-769); test: immunofluorescent staining of transfected HEK293 cells
T1 construct: whole, on cells; also called negative control protein CD18
T1 sequence (P05107 23-769 limits assumed): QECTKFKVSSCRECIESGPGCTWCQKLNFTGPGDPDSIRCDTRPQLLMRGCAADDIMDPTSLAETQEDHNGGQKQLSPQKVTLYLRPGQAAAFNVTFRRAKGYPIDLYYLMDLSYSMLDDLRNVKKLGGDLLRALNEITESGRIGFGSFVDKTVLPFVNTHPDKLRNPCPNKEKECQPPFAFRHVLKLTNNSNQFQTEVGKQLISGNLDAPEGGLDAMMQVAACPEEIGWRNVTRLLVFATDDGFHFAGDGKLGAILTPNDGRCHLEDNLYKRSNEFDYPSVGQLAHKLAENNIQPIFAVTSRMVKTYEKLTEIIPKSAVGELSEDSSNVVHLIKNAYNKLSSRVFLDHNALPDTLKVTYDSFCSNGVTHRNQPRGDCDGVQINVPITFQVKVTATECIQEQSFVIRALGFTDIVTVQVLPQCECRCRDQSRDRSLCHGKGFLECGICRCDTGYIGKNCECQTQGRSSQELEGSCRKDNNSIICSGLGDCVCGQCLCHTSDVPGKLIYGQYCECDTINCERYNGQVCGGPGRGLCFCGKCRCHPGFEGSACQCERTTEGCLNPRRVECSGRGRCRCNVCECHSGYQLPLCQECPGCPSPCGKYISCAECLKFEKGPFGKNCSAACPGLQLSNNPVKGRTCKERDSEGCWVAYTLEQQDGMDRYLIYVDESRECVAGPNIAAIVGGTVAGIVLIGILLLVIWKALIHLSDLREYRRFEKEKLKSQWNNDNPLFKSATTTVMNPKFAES

OD405 [1]: 0.098 OD405
binding result [2]: no binding
B1: mouse monoclonal anti-human CD37 antibody, clone 2B8D12 (antibody, IgG1, V domains shown)
VH: QVKLDETGGGLVQPGRPMKLSCVASGFTFSDYWMNWVRQSPEKGLEWVAQIRDKPYNYETFYSDSVKGRFTISRDDSKSSVYLQMNNLGAEDMGIYYCTGSFAYWGQGTLVTVSA
VL: DIQMTQSPASLSASEGETVTITCRASGNIHNYLAWYQQKQGKSPQLLVYNAKTLPDGVPSRVSGSGSGTQYSLKINNLQPEDFGNYYCQQYWSTPYTFGGGSRLEIKR
notes: Mouse hybridoma antibody; also called antibody CD37; CD37 antibody (2B8D12)
